In patent publication US20210388079A1 (IMMATICS BIOTECHNOLOGIES, published 2021):
Like-named read-outs stand apart in the source and are kept apart here.

Columns and labels:
Assay in all cases: cell-based or functional assay
[1] = target: T1, HLA-A*02-presented SPINK2-001 on target cells (T2 cells loaded with SPINK2-001 peptide); A375 cells … (human)
[2] = target: T1, HLA-A*02-presented SPINK2-001 on target …; remark: listed apart in the source
[3] = target: T1, HLA-A*02-presented SPINK2-001 on target …; remark: listed apart in the source

B1: TCR R44P3E7, alpha and beta chains expressed in human primary CD8+ T-cells by RNA electroporation (TCR, V domains shown)
V domain 1: RGEDVEQSLFLSVREGDSSVINCTYTDSSSTYLYWYKQEPGAGLQLLTYIFSNMDMKQDQRLTVLLNKKDKHLSLRIADTQTGDSAIYFCAEINNNARLMFGDGTQLVVKP
V domain 2: AAGVIQSPRHLIKEKRETATLKCYPIPRHDTVYWYQQGPGQDPQFLISFYEKMQSDKGSIPDRFSAQQFSDYHSELNMSSLELGDSALYFCASSPPDQNTQYFGPGTRLTVLE
- EC50 (read off the curve), IFNγ release, donor TCRA-0023 [1]: ~0.6 nM
- EC50 (read off the curve), IFNγ release, donor TCRA-0024 [1]: ~1 nM

B2: TCR R40P1C2, alpha and beta chains expressed in human primary CD8+ T-cells by RNA electroporation (TCR, V domains shown)
V domain 1: QTVTQSQPEMSVQEAETVTLSCTYDTSESDYYLFWYKQPPSRQMILVIRQEAYKQQNATENRFSVNFQKAAKSFSLKISDSQLGDAAMYFCAYLNYQLIWGAGTKLIIKP
V domain 2: EPEVTQTPSHQVTQMGQEVILRCVPISNHLYFYWYRQILGQKVEFLVSFYNNEISEKSEIFDDQFSVERPDGSNFTLKIRSTKLEDSAMYFCASSEMTAVGQYFGPGTRLTVTE
- EC50 (read off the curve), IFNγ release, donor TCRA-0024 [2]: ~3 nM

B3: TCR R59P2A7, alpha and beta chains expressed in human primary CD8+ T-cells by RNA electroporation (TCR, V domains shown)
V domain 1: QKEVEQNSGPLSVPEGAIASLNCTYSDRGSQSFFWYRQYSGKSPELIMSIYSNGDKEDGRFTAQLNKASQYVSLLIRDSQPSDSATYLCAVQPHDMRFGAGTRLTVKP
V domain 2: SQTIHQWPATLVQPVGSPLSLECTVEGTSNPNLYWYRQAAGRGLQLLFYSVGIGQISSEVPQNLSASRPQDRQFILSSKKLLLSDSGFYLCAWSGLVAEQFFGPGTRLTVLE
- EC50 (read off the curve), IFNγ release, donor TCRA-0023 [3]: ~10 nM
- EC50 (read off the curve), IFNγ release, donor TCRA-0024 [3]: ~50 nM
